Measured values taken from the supplement of paper PMC10126150.
± gives the standard deviation of the averaged measurements.

Test system: ATP
Assay: switch fluorescence ratio, 500 uM ATP over buffer (Cy3 cluster intensity, sum of 5 cycles each) (fold (ratio)); higher = stronger signal-on switching upon ATP binding; sequences stand for … in TCGTCGGCAGCGTCAGATGTGTATAAGAGACAGTTTTTTTTTTTTTTTTTTTTTTTTT…TC
Conditions: aptamer strand: ATP DNA aptamer (quencher-CACCTGGGGGAGTATTGCGGAGGAAGG + anchor), 100 nM annealed; ATP concentration: 500 uM
Summary of the method: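 Clusters with intensities outside 100-1000 RFU were excluded. The remaining Cy3-labelled switching-strand clusters on a modified Illumina MiSeq flow-cell had been annealed to 100 nM quencher-labelled ATP aptamer and imaged in selection buffer, then after 15 min with 500 uM ATP at 22 °C, for five cycles separated by NaOH stripping and re-annealing. The fluorescence ratio, averaged per switch-domain sequence, is each cluster's summed target-cycle Cy3 intensity over its summed buffer-cycle Cy3 intensity.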
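Note: ATP exposure 15 min at 22 °C before imaging.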

Row | Sequence | switch fluorescence ratio
1 | ATCCGTGGTT | 1.01 ± 0.047
2 | ATCCGTGTCG | 1.02 ± 0.048
3 | ATCCTCGTTG | 1.02 ± 0.03
4 | ATCCTGGATA | 1.003 ± 0.01
5 | ATCCTGGGTG | 3.73 ± 1.5
6 | ATCCTTGCG | 1.022 ± 0.0053
7 | ATCCTTGGTC | 1.01 ± 0.023
8 | ATCGAAGCCA | 1.091 ± 0.0016
9 | ATCGAGAGGT | 0.973 ± 0.019
10 | ATCGAGGGGA | 0.978 ± 0.019
11 | ATCGAGGGGT | 0.955 ± 0.037
12 | ATCGATATTG | 0.991 ± 0.029
13 | ATCGATTGTT | 1.01 ± 0.031
14 | ATCGCATATG | 1.08 ± 0.053
15 | ATCGCGACTA | 1.05 ± 0.036
16 | ATCGCGAGGA | 1.026 ± 0.0025
17 | ATCGCGTGTG | 1.009 ± 0.0062
18 | ATCGCTTAGG | 1 ± 0.012
19 | ATCGGAATAA | 1.4 ± 0.025
20 | ATCGGACGCG | 0.987 ± 0.016
21 | ATCGGATGGC | 1.06 ± 0.02
22 | ATCGGGAGAT | 0.9833 ± 0.0076
23 | ATCGGGAGCC | 0.959 ± 0.03
24 | ATCGGGCTGT | 1.03 ± 0.013
25 | ATCGGGGAGA | 0.997 ± 0.017
26 | ATCGGGGGA | 1.02 ± 0.051

Row | Sequence | switch fluorescence ratio
27 | ATCGGGGGTC | 0.946 ± 0.032
28 | ATCGGGGGTT | 0.987 ± 0.023
29 | ATCGGGGTCC | 1.02 ± 0.019
30 | ATCGGGTAA | 0.9965 ± 0.0029
31 | ATCGGGTCGG | 1.01 ± 0.03
32 | ATCGGTGGGG | 0.963 ± 0.019
33 | ATCGTATGGA | 0.998 ± 0.013
34 | ATCGTGATGG | 1.03 ± 0.04
35 | ATCGTGGGAA | 0.9793 ± 0.0059
36 | ATCGTGGGGG | 1 ± 0.028
37 | ATCGTGTTGA | 0.971 ± 0.02
38 | ATCGTTATCA | 0.991 ± 0.056
39 | ATCGTTCGTG | 0.99714 ± 0.00096
40 | ATCGTTCTGT | 0.966 ± 0.025
41 | ATCGTTGAGG | 0.986 ± 0.023
42 | ATCGTTGCGG | 1.1 ± 0.099
43 | ATCGTTGTA | 1.04 ± 0.069
44 | ATCGTTGTAC | 1.18 ± 0.048
45 | ATCGTTTAAT | 0.9671 ± 0.003
46 | ATCTACATTA | 1.04 ± 0.015
47 | ATCTACGTTG | 1.05 ± 0.012
48 | ATCTAGGTCA | 1.02 ± 0.037
49 | ATCTAGTTTG | 1.01 ± 0.045
50 | ATCTATCGTG | 0.991 ± 0.021
51 | ATCTATGGTG | 1.02 ± 0.02
52 | ATCTCTGGGT | 1 ± 0.033

Row | Sequence | switch fluorescence ratio
53 | ATCTCTGGTC | 0.976 ± 0.027
54 | ATCTGAGAGG | 1.003 ± 0.0031
55 | ATCTGGAATA | 1.24 ± 0.039
56 | ATCTGGCTCG | 0.988 ± 0.016
57 | ATCTGTTTTT | 0.972 ± 0.0075
58 | ATCTTAATG | 1.01 ± 0.05
59 | ATCTTAGTGC | 1 ± 0.026
60 | ATCTTCAATT | 1.005 ± 0.0055
61 | ATCTTGAGAC | 1.02 ± 0.042
62 | ATCTTGGGTT | 1.006 ± 0.0064
63 | ATCTTGTGGC | 0.972 ± 0.032
64 | ATCTTGTGTC | 0.945 ± 0.02
65 | ATCTTGTTGG | 1.13 ± 0.27
66 | ATCTTTATGT | 1.03 ± 0.017
67 | ATCTTTCGCG | 1.02 ± 0.015
68 | ATCTTTTAGG | 1.07 ± 0.11
69 | ATGAAATCTG | 1.06 ± 0.074
70 | ATGAAGAGAG | 0.9897 ± 0.0069
71 | ATGAAGCTAG | 1.06 ± 0.013
72 | ATGAAGGGAA | 0.999 ± 0.017
73 | ATGAAGGGTG | 1.04 ± 0.036
74 | ATGAAGTTGT | 1.019 ± 0.01
75 | ATGAATCTTG | 1.02 ± 0.032
76 | ATGAATGTTT | 1 ± 0.026
77 | ATGAATTTGG | 0.973 ± 0.025
78 | ATGACCGGTT | 1.01 ± 0.046

Row | Sequence | switch fluorescence ratio
79 | ATGACCTCGG | 1.02 ± 0.07
80 | ATGACGAAGC | 1.57 ± 0.13
81 | ATGACGCCTG | 1 ± 0.022
82 | ATGACTTGCG | 1 ± 0.023
83 | ATGACTTGGG | 0.96 ± 0.011
84 | ATGACTTTGG | 0.977 ± 0.028
85 | ATGAGAAGGC | 0.997 ± 0.038
86 | ATGAGACCCT | 1.07 ± 0.036
87 | ATGAGAGCTT | 0.982 ± 0.011
88 | ATGAGATAGG | 0.982 ± 0.045
89 | ATGAGATTGC | 0.9899 ± 0.0076
90 | ATGAGGCACG | 1.05 ± 0.068
91 | ATGAGGGCAG | 0.993 ± 0.018
92 | ATGAGGGGCA | 0.98 ± 0.026
93 | ATGAGGTTTG | 1.01 ± 0.019
94 | ATGAGGTTTT | 0.991 ± 0.012
95 | ATGAGTCTTT | 0.9801 ± 0.0079
96 | ATGAGTGCTC | 0.98 ± 0.0086
97 | ATGAGTGGAG | 1.034 ± 0.004
98 | ATGAGTTACT | 1.005 ± 0.0051
99 | ATGAGTTGGT | 0.982 ± 0.033
100 | ATGAGTTTTG | 0.984 ± 0.029
101 | ATGATACAGG | 1.08 ± 0.039
102 | ATGATATGTT | 0.992 ± 0.034
103 | ATGATGCAGA | 1.004 ± 0.008
104 | ATGATGCTTG | 0.993 ± 0.045

Row | Sequence | switch fluorescence ratio
105 | ATGATGGGGA | 0.987 ± 0.021
106 | ATGATGGGTG | 1.01 ± 0.02
107 | ATGATGGTCC | 0.9778 ± 0.0014
108 | ATGATGGTTA | 0.9978 ± 0.0052
109 | ATGATTGACC | 1.083 ± 0.0026
110 | ATGATTTTTC | 0.976 ± 0.039
111 | ATGCAACCAT | 1.01 ± 0.013
112 | ATGCACGTGG | 1.008 ± 0.003
113 | ATGCACTGGG | 1.08 ± 0.05
114 | ATGCATAGAT | 1.01 ± 0.032
115 | ATGCATGAAA | 1 ± 0.017
116 | ATGCATGGGC | 1.03 ± 0.022
117 | ATGCATGTGC | 0.983 ± 0.01
118 | ATGCATTAAT | 0.997 ± 0.015
119 | ATGCATTGCG | 0.99777 ± 0.00081
120 | ATGCATTGGA | 1.01 ± 0.029
121 | ATGCCGGAG | 0.986 ± 0.028
122 | ATGCGAAGGT | 1.04 ± 0.037
123 | ATGCGAATAT | 0.989 ± 0.015
124 | ATGCGAGTGG | 1.01 ± 0.047
125 | ATGCGATGGC | 1.02 ± 0.0072
126 | ATGCGCCGGT | 1.011 ± 0.0027
127 | ATGCGGCATT | 1.03 ± 0.044
128 | ATGCGGGCCC | 0.99 ± 0.012
129 | ATGCGGGGGC | 1.045 ± 0.0046
130 | ATGCGGGGGT | 0.993 ± 0.037

Row | Sequence | switch fluorescence ratio
131 | ATGCGGGTGC | 1.04 ± 0.039
132 | ATGCGGGTTT | 1.02 ± 0.018
133 | ATGCGTCGCG | 0.986 ± 0.025
134 | ATGCGTGGAA | 1.02 ± 0.027
135 | ATGCTAACGT | 0.9818 ± 0.0032
136 | ATGCTATGCG | 1.008 ± 0.01
137 | ATGCTATGGT | 0.987 ± 0.013
138 | ATGCTGGGCG | 1.02 ± 0.041
139 | ATGCTGTTGG | 1 ± 0.026
140 | ATGCTTCTTT | 0.9854 ± 0.0053
141 | ATGGAAAGGG | 0.989 ± 0.041
142 | ATGGAACCGT | 1.02 ± 0.027
143 | ATGGAACCTT | 1.28 ± 0.34
144 | ATGGAAGGGA | 1.15 ± 0.21
145 | ATGGAAGTGC | 0.9827 ± 0.0068
146 | ATGGAAGTGG | 0.9908 ± 0.007
147 | ATGGAATGCG | 1.028 ± 0.0089
148 | ATGGACACGC | 1.03 ± 0.042
149 | ATGGACTATG | 1.02 ± 0.043
150 | ATGGAGAAAG | 1.02 ± 0.059
151 | ATGGAGGCG | 1.03 ± 0.013
152 | ATGGAGGGTA | 0.99 ± 0.016
153 | ATGGAGTGTG | 0.989 ± 0.02
